Patent US20230226096A1 (Orna Therapeutics, Inc., priority 2020, published 2023)

B1: Camel alphacoronavirus (nucleic acid, listed as Alphacoronavirus sp.)
DNA: CTTAAGTGTCTTATCTATCTATAGATAGAAAAGTCGCTTTTTAGACTTTGTGTCTACTCTTCTCAACTAAACGAAATTTTTGCTACGGCCGGCATCTCTGATGCTGGAGTCGTGGCGTAATTGAAATTTCATTTGGGTTGCAACAGTTTGGAAATAAGTGCTGTGCGTCCTAGTCTAAGGGTTCTGTGTTCTGTCACGGGATTCCATTCTACAAACGCCTTACTCGAGGTTCTGTCTCGTGTTTGTGTGGAAGCAAAGTTCTGTCTTTGTGGAAACCAGTAACTGTTCCTA
B2: Chicken picornavirus 1 (nucleic acid)
DNA: GTGGCCGACTTGCAGAACTTCCTACCGAACCACCACCTCACCCCCATAACTCCTTCCCTCTACACCTTCCGCTATGGTGGTTACCACTGCTTTATTGCCTTGACTGAGAATGGCCACCCCCTCGACACCTGCCCCCTACTGCCCCACCGCGCAACCTTTTGCTTGTCCACTCGGTTGGAGAGGCATGGGGGCCCCGTTCATATCCCCAGTCCAGTTGGTGACCTTCCCCCTCCCCGTCCGGTAGATGGTCCAGAGGGCTTTGCCGACGCCCTCTATGATGCTTGCTTGTCTTTCCTCCGTCAGCGCGAGCATGCACTTGTCGAGCCCACGGAAACACAGCCTAGCTTTTGCTTCTCTCACCCTGCGTACCCTGGGCGCCTTCCGCTCGAGATTCGCTTTGTTCGACACCCTGGCGTCCCCCCACCGCTACGTGATTTTACTCGTGGCATACACCGCCCTGGCGTTCAGTACATTCCACTGCCTAATTTGGGTGGCCTCCCTCAATCTCCCGCACCCCCCATTGCGCACGTCATCACCGCCGCCGCTAACGCGATCCGGCGCGGTTCTCACTGGCACTGTCCCCTCGTCCGCCGGGTTTCCACTCATGGTTGGCTTTTCACTTATTCTGGTTACTGGTGTTCCATCCTACTTCATGATGGTCGCCATGACCATGAC
B3: Human coxsackievirus A2 (nucleic acid)
DNA: ACCTTTGTGCGCCTGTTTTATATCCCCACCCCGAGTAAACGTTAGAAGTTACGCAACCCCGATCAATAGTAGGTGTAGCACTCCAGCTGCATCGAGATCAAGCACTTCTGTCTCCCCGGACCGAGTATCAATAGACTGCTAACGCGGTTGAAGGAGAAAACGTTCGTTACCCGGCCAATTACTTCGAGAAGCCCAGTAGTGCCGTGAAAGTTGCGGAGTGTTTCGCTCAGCACTTCCCCCGTGTAGATCAGGCTGATGAGTCACCGCGATCCCCACAGGTGACTGTGGCGGTGGCTGCGTTGGCGGCCTGCCTATGGGGCAACCCATAGGACGCTCTAATACAGACATGGTGCGAAGAGCCTATTGAGCTAATTGGTAGTCCTCCGGCCCCTGAATGCGGCTAATCCTAACTGCGGAGCACATGCCCTCAAACCAGGGGGTGGTGTGTCGTAACGGGTAACTCTGCAGCGGAACCGACTACTTTGGGTGTCCGTGTTTCTTTTTATTCTTATAATGGCTGCTTATGGTGACAATTAAAGAATTGTTACCATATAGCTATTGGATTGGCCATCCGGTGACTAACAAATCGCTCATATACCAGTTTGTTGGTTTTGTTCCCTTATCACATACAGCTCATAACACCCTCTTATATTTACTACAATTGAATAGCAAGAA
B4: Canine distemper virus (nucleic acid, listed as Canine morbillivirus)
DNA: ACCAGACAAAGTTGGCTAAGGATAGTTAAATTATTGAATATTTTATTAAAAACTTAGGGTCAATGATCCTACCTTAAAGAACAAGGCTAGGGTTCAGACCTACCAAT
modifications: chemistry not fully specified
B5: Canine kobuvirus (nucleic acid, listed as Kobuvirus sp.)
DNA: TTTAAGTGTTGTGCCCAATCTCTTGACTCCTGCTGGAACCACCGACCAGTAGTGTCCAAAATGCCAGGTGGAAAATCCTCCCTTCCCCTCTGGGCTTCATGCCCGGCATCCTCCCCCCAGCCTGACGTGCCACAGGCTGTGCAAAGACCCCGCGAAAGCTGCCAAAAGTGGCAATTGTGGGTCCCCCCTTTGTCAAGGCGTCGAGTCTTTCTCCCTTAAGGCTAGTCCTGTCAGTGAACTCTGTCGGGCAACTAGTGACGCCACTGCATGCCTCCGACCTCGGCCGCGGAGTGCTGCCCCCCAAGTCATGCCCCTGACCACAAGTTGTGCTGTCTGGCAAACATTGTCTGTGAGAATGTTCCGCTGTGGCTGCCAAGCCTGGTAACAGGCTGCCCCAGTGTGCGTAATTCTCATCCAGACTTCGGTCTGGCAACTTGCTGTTAAGACATGGCGTAAGGGGCGTGTGCCAACGCCCTGGAACGAGTGTCCACTCTAATACCCCGAGGAATGCTACGCAGGTACCCCTGGCTCGCCAGGGATCTGAGCGTAGGCTAATTGTCTAAGGGTATTTTCATTTCCCACCCTCTTCTTCTTGTTCATA
B6: Canine picodicistrovirus strain 209 (nucleic acid)
DNA: CGCTCTTTATACAAATCTGTCAACCCTTTGTATAACTCTAAGCCGAACAATTATAGCTAGGCTTTTTATTATATAACATTAATTAGGCATTAGCGTTGTCGCCAATCTCTTGGTAATCCTAAGGATACCTTTCCTGTTGACTAAGATGAAGCGCCTTCGGTTACCGATGCCCGGTGTCCACGAAGCCATCGTGGTCGGCCGCGTCCCCCACCTCTCCCAACTTGGACTCCATGTTTTCAGTAGGTGTAATGATTAGTATTATTGATTCTGCTCGTTCAATGTGTTTATCTTCACGATCTGGGACCCAACACATGCTTCACTCATGTTTAAATGTTGGTTCCCTCATTTTGAAGACACCCAAACCATAGAGTGCGAGAATGAGGATTTCTACTTCCATTCTGGTAACAGAAATGAATTCCTGCGTGTGTCTCGTAAATGGAATCTTTAAGAACTTCAGATAAATCGAACAATACACTAATACAAGTTGTTTTCTACCAACATGTTCAATGCGGCTAATCTGACCGTGGAGCTGTGAAGCGCTCAAACCCGAGTGTTGTATACAGTCGTAATGCGTAAGTCCATGAGGAACCGACTACTGTTACCTCTGTTGGTGTGTTTCTCCTTTCCTCTCTTTTATTATTATTTGTTATTGCAAATACTACAACTTTGATCAAC
B7: Chicken picornavirus 3 (nucleic acid)
DNA: GGGTATGGTGGTTAACCCCGTCCACTGGGCATCTTTGCCCTCTCAGAAGTGGATCAATCCACCCCAACTCCCCCCCTGGTTACCTGAGCCACAGTGGACTCCGGTGACGAAGCTAGGGACCCCAATACCTCAAGTGCCAAGAGAGTCCCCCCCTCGCGAGAGGTGCTCTTGGGCCCAAAAGGCTAGTTGGCAGAGTGAAGTGAAGGAAGCTGCTAACGTGGTGACCTTAAGCGTAATTCGAAGCTGACCTTTGAGGTTAACCCTAGTGGACCACTGGAGGAATCTGTGGAGGTGGTGGTTAGGAAAGTTGGCCACTTGTGAGTAGATGCCCAGAAGGCATAAGGCTGATCTGGGGCCAGTGACTATACCGTTCCGGTAAACCTGGTATAAAAACCATGAAAGCAAGTGGGTGAAATTTTCTCTTTTTATCCTTCATTCAGCAGTTGATATTGGCAAA
B8: Rafivirus WHWGGF74766 (nucleic acid, listed as Rafivirus sp.)
DNA: TGCGAATTTATTCGCACAGTCTCTTTTCCCCCATCTTGTGTGTGTGATGGGGTAAGCCGCAGAGTAATACCTACTCTGCTGCAAACACACTCACTCTTTTCTATCTACTTTATATCATGTAATAATAAGTAGGGAACATATTCAATTCATATTGTTCATCTCACTGAACCCGCATGAAGGACTGCATTGCATATCCTGGACGAAGTGACGTGGAATATTTGGACATTTATGGATTGGACACCATTACGCTTTGTGCCTCTACGGAGATGTAACCATAATCTTAAGTAGTAGTACCCCAGCACAAGAGGATAAAGTGGCATACACGACAACGGGTGTTGCTCGCACCTTAGTAATGTGGATGTTCACCCTTGGAGCGTGCTGAAACTCTGTGGGTAAAGACACACATTAGTACAAATGTGGGGGAACTCACTGAAAGGGCATGTCCCGTGTACTGGTGTGCCGGAAAGTGGGGGTCGCTTTCTGGAGAACTTAGTAGTTCTTGTTATTGGGTGATAGCCTTGCGGCGGATCAACTCACAGTTTTAATCCGTTGTTTTGCAT
B9: Coronavirus AcCoV-JC34 (nucleic acid)
DNA: AGAAACAAGTAGTGTTTTAAAAACCTTCAAATTAGTGCCTGTAACATCTTTGCAATGAAAGTAGCGCTCACTAGCCTCTATGCAAAGAATGTTAAAAGAAATACGAAGCATTTAAAGAATACAATCTATCTAGGATAGGTACAATTCTCCTCCCCCTCTTGACTTCGGTCAACTCAACTCAACTAAACGAAATCCCCCTTGCATGGTTCCGACCCGTGTAAGGTTGTGTATTTCGTGCAGTCGTTGCCCTTACTAGTGTAAGCGTAACGGCATCTAGGTTTGCACGTCTTGGAGGAAACGGTGTGTACGTTTCTAGTGTTTACGCCGTATCGGTTCCGGCCCGATAGGTATTGCATTAGACGTCCTGGGTGGTTCTGCCTGCCCTTGTGTGATTCGGCTGTTCCGTCAGTTTGGTCACCTCACACGTCCTTAAGAC
B10: Cripavirus (nucleic acid, listed as Cripavirus sp.)
DNA: GCAAAATCGGTAGTACGTTAAACGTACGACCACCGATGAGACTGAAATGACACTAGTTGAGATTATTTCAATATCCTAGTGTTATAAAGTCAATATTTGTTGGTTGATCGTTTCGTCAATCGATGGCGCTGACAGCCGGAAAGACGGCAATAATAAAAACCAAGATTTAGTTTTTAAGTTTTGATTGAATTGCAAAAGCTATCTTGAATAGACAATCAAAATATTAAGTAAAGCAAAAGCTTCTTAAAGAAGACAATATTTAATTAGTTAGTAACCAAACCTCATCGTGCCCCTAAGGGTTAACCGGTTACGTAAAAGCGTAGAGGTATTAAGGTCACTGCGGAGACCTAAAATCCGCAATTTTATGTTTTGTAATGTTTTAGTTATAGACTTAGATGTAACTATAAGAGTTTATAAATACTTGTTTCAAGATTTATAGACAAGATCTGATCCTATGGATTTTAGATAACCTTCATGTTAGTGGATAGTGTGTGTACCTATCTAAACGCATAAGGCTCTTATTTCATATTTAAAGTAGGACTATGTATTACGGCGCATCTAACGGTAACGTTAGTCAAGACCGGAGAATCTCGGAATGAATTTTAGTAATTCCCAAATTTATA

System: HEK293 cells
Type: cell-based, human
Conditions: luminescence from secreted Gluc in supernatant 24 hours after transfection of HEK293 cells; circular RNA encoding Gluc with the named IRES (UTR truncated to 675 nt)

Point of comparison: B5, Expression 1.48E+08. Against it:
- B1 — lower, 2.48E+05
- B2 — lower, 1.21E+05
- B3 — lower, 7.75E+07
- B4 — lower, 3.02E+05
- B6 — lower, 2.79E+06
- B7 — lower, 9.13E+04
- B8 — lower, 4.53E+06
- B9 — lower, 1.82E+05
- B10 — lower, 1.95E+05
